Patent US20250368745A1 (published 2025)
Several values for one entry are separate records, joined by “and”; a condition that tells them apart may be missing. Equal values may be shown once.

Biological target: T1, human IL-18BP (human, UniProt O95998 31-194)
T1 construct: UniProt printed as 095998; also called hIL-18BP
T1 sequence: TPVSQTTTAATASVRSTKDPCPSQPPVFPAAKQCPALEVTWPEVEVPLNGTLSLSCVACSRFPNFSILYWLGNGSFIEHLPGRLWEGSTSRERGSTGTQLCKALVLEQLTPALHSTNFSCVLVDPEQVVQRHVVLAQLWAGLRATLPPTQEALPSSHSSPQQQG
Test: BLI, apparent KD

Binder | Kd
SA301a HC-T57E (antibody, name in Kabat numbering, V domains shown, IgG1 kappa) VH: QVQLQESGPGLVKPSQTLSLTCTVSGYSITSDYNSHWIRQPPGKGLEWIGYIHYSGSENYNPSLKSRVTISRDTSKNQFSLKLSSVTAADTAVYYCARNYGSIYVNYFDYWGQGTLVTVSS VL: EIVLTQSPATLSLSPGERATLSCSASSSVSYMYWYQQKPGQAPRPLIYRTSNLASGIPARFSGSGSGTDFTLTISSLEPEDFAVYYCQQYHSYPTFGGGTKVEIK | 0.42 nM
SA301a HC-T57N (antibody, name in Kabat numbering, V domains shown, IgG1 kappa) VH: QVQLQESGPGLVKPSQTLSLTCTVSGYSITSDYNSHWIRQPPGKGLEWIGYIHYSGSNNYNPSLKSRVTISRDTSKNQFSLKLSSVTAADTAVYYCARNYGSIYVNYFDYWGQGTLVTVSS VL: EIVLTQSPATLSLSPGERATLSCSASSSVSYMYWYQQKPGQAPRPLIYRTSNLASGIPARFSGSGSGTDFTLTISSLEPEDFAVYYCQQYHSYPTFGGGTKVEIK | 0.86 nM
SA301a HC-Y59N (antibody, name in Kabat numbering, V domains shown, IgG1 kappa) VH: QVQLQESGPGLVKPSQTLSLTCTVSGYSITSDYNSHWIRQPPGKGLEWIGYIHYSGSTNNNPSLKSRVTISRDTSKNQFSLKLSSVTAADTAVYYCARNYGSIYVNYFDYWGQGTLVTVSS VL: EIVLTQSPATLSLSPGERATLSCSASSSVSYMYWYQQKPGQAPRPLIYRTSNLASGIPARFSGSGSGTDFTLTISSLEPEDFAVYYCQQYHSYPTFGGGTKVEIK | 0.79 nM
SA301a HC-T57S (antibody, name in Kabat numbering, V domains shown, IgG1 kappa) VH: QVQLQESGPGLVKPSQTLSLTCTVSGYSITSDYNSHWIRQPPGKGLEWIGYIHYSGSSNYNPSLKSRVTISRDTSKNQFSLKLSSVTAADTAVYYCARNYGSIYVNYFDYWGQGTLVTVSS VL: EIVLTQSPATLSLSPGERATLSCSASSSVSYMYWYQQKPGQAPRPLIYRTSNLASGIPARFSGSGSGTDFTLTISSLEPEDFAVYYCQQYHSYPTFGGGTKVEIK | 0.37 nM
SA301a HC-T57L (antibody, name in Kabat numbering, V domains shown, IgG1 kappa) VH: QVQLQESGPGLVKPSQTLSLTCTVSGYSITSDYNSHWIRQPPGKGLEWIGYIHYSGSLNYNPSLKSRVTISRDTSKNQFSLKLSSVTAADTAVYYCARNYGSIYVNYFDYWGQGTLVTVSS VL: EIVLTQSPATLSLSPGERATLSCSASSSVSYMYWYQQKPGQAPRPLIYRTSNLASGIPARFSGSGSGTDFTLTISSLEPEDFAVYYCQQYHSYPTFGGGTKVEIK | 0.32 nM
SA301a HC-T57V (antibody, name in Kabat numbering, V domains shown, IgG1 kappa) VH: QVQLQESGPGLVKPSQTLSLTCTVSGYSITSDYNSHWIRQPPGKGLEWIGYIHYSGSVNYNPSLKSRVTISRDTSKNQFSLKLSSVTAADTAVYYCARNYGSIYVNYFDYWGQGTLVTVSS VL: EIVLTQSPATLSLSPGERATLSCSASSSVSYMYWYQQKPGQAPRPLIYRTSNLASGIPARFSGSGSGTDFTLTISSLEPEDFAVYYCQQYHSYPTFGGGTKVEIK | 0.36 nM
SA301a HC-T57G (antibody, name in Kabat numbering, V domains shown, IgG1 kappa) VH: QVQLQESGPGLVKPSQTLSLTCTVSGYSITSDYNSHWIRQPPGKGLEWIGYIHYSGSGNYNPSLKSRVTISRDTSKNQFSLKLSSVTAADTAVYYCARNYGSIYVNYFDYWGQGTLVTVSS VL: EIVLTQSPATLSLSPGERATLSCSASSSVSYMYWYQQKPGQAPRPLIYRTSNLASGIPARFSGSGSGTDFTLTISSLEPEDFAVYYCQQYHSYPTFGGGTKVEIK | 0.11 nM
SA301a HC-Y59G (antibody, name in Kabat numbering, V domains shown, IgG1 kappa) VH: QVQLQESGPGLVKPSQTLSLTCTVSGYSITSDYNSHWIRQPPGKGLEWIGYIHYSGSTNGNPSLKSRVTISRDTSKNQFSLKLSSVTAADTAVYYCARNYGSIYVNYFDYWGQGTLVTVSS VL: EIVLTQSPATLSLSPGERATLSCSASSSVSYMYWYQQKPGQAPRPLIYRTSNLASGIPARFSGSGSGTDFTLTISSLEPEDFAVYYCQQYHSYPTFGGGTKVEIK | 1.59 nM
SA301a HC-Y59K (antibody, name in Kabat numbering, V domains shown, IgG1 kappa) VH: QVQLQESGPGLVKPSQTLSLTCTVSGYSITSDYNSHWIRQPPGKGLEWIGYIHYSGSTNKNPSLKSRVTISRDTSKNQFSLKLSSVTAADTAVYYCARNYGSIYVNYFDYWGQGTLVTVSS VL: EIVLTQSPATLSLSPGERATLSCSASSSVSYMYWYQQKPGQAPRPLIYRTSNLASGIPARFSGSGSGTDFTLTISSLEPEDFAVYYCQQYHSYPTFGGGTKVEIK | 0.12 nM
SA301a HC-Y59P (antibody, name in Kabat numbering, V domains shown, IgG1 kappa) VH: QVQLQESGPGLVKPSQTLSLTCTVSGYSITSDYNSHWIRQPPGKGLEWIGYIHYSGSTNPNPSLKSRVTISRDTSKNQFSLKLSSVTAADTAVYYCARNYGSIYVNYFDYWGQGTLVTVSS VL: EIVLTQSPATLSLSPGERATLSCSASSSVSYMYWYQQKPGQAPRPLIYRTSNLASGIPARFSGSGSGTDFTLTISSLEPEDFAVYYCQQYHSYPTFGGGTKVEIK | 0.08 nM
SA301a HC-T57K (antibody, name in Kabat numbering, V domains shown, IgG1 kappa) VH: QVQLQESGPGLVKPSQTLSLTCTVSGYSITSDYNSHWIRQPPGKGLEWIGYIHYSGSKNYNPSLKSRVTISRDTSKNQFSLKLSSVTAADTAVYYCARNYGSIYVNYFDYWGQGTLVTVSS VL: EIVLTQSPATLSLSPGERATLSCSASSSVSYMYWYQQKPGQAPRPLIYRTSNLASGIPARFSGSGSGTDFTLTISSLEPEDFAVYYCQQYHSYPTFGGGTKVEIK | 0.52 nM
SA301a HC-Y59F (antibody, name in Kabat numbering, V domains shown, IgG1 kappa) VH: QVQLQESGPGLVKPSQTLSLTCTVSGYSITSDYNSHWIRQPPGKGLEWIGYIHYSGSTNFNPSLKSRVTISRDTSKNQFSLKLSSVTAADTAVYYCARNYGSIYVNYFDYWGQGTLVTVSS VL: EIVLTQSPATLSLSPGERATLSCSASSSVSYMYWYQQKPGQAPRPLIYRTSNLASGIPARFSGSGSGTDFTLTISSLEPEDFAVYYCQQYHSYPTFGGGTKVEIK | 0.87 nM
SA301a HC-Y59A (antibody, name in Kabat numbering, V domains shown, IgG1 kappa) VH: QVQLQESGPGLVKPSQTLSLTCTVSGYSITSDYNSHWIRQPPGKGLEWIGYIHYSGSTNANPSLKSRVTISRDTSKNQFSLKLSSVTAADTAVYYCARNYGSIYVNYFDYWGQGTLVTVSS VL: EIVLTQSPATLSLSPGERATLSCSASSSVSYMYWYQQKPGQAPRPLIYRTSNLASGIPARFSGSGSGTDFTLTISSLEPEDFAVYYCQQYHSYPTFGGGTKVEIK | 0.35 nM
SA301a HC-T57I (antibody, name in Kabat numbering, V domains shown, IgG1 kappa) VH: QVQLQESGPGLVKPSQTLSLTCTVSGYSITSDYNSHWIRQPPGKGLEWIGYIHYSGSINYNPSLKSRVTISRDTSKNQFSLKLSSVTAADTAVYYCARNYGSIYVNYFDYWGQGTLVTVSS VL: EIVLTQSPATLSLSPGERATLSCSASSSVSYMYWYQQKPGQAPRPLIYRTSNLASGIPARFSGSGSGTDFTLTISSLEPEDFAVYYCQQYHSYPTFGGGTKVEIK | 0.28 nM
SA301a HC-T57M (antibody, name in Kabat numbering, V domains shown, IgG1 kappa) VH: QVQLQESGPGLVKPSQTLSLTCTVSGYSITSDYNSHWIRQPPGKGLEWIGYIHYSGSMNYNPSLKSRVTISRDTSKNQFSLKLSSVTAADTAVYYCARNYGSIYVNYFDYWGQGTLVTVSS VL: EIVLTQSPATLSLSPGERATLSCSASSSVSYMYWYQQKPGQAPRPLIYRTSNLASGIPARFSGSGSGTDFTLTISSLEPEDFAVYYCQQYHSYPTFGGGTKVEIK | 0.18 nM
SA301a HC-T57Y (antibody, name in Kabat numbering, V domains shown, IgG1 kappa) VH: QVQLQESGPGLVKPSQTLSLTCTVSGYSITSDYNSHWIRQPPGKGLEWIGYIHYSGSYNYNPSLKSRVTISRDTSKNQFSLKLSSVTAADTAVYYCARNYGSIYVNYFDYWGQGTLVTVSS VL: EIVLTQSPATLSLSPGERATLSCSASSSVSYMYWYQQKPGQAPRPLIYRTSNLASGIPARFSGSGSGTDFTLTISSLEPEDFAVYYCQQYHSYPTFGGGTKVEIK | 1.74 nM
SA301a HC-T57R (antibody, name in Kabat numbering, V domains shown, IgG1 kappa) VH: QVQLQESGPGLVKPSQTLSLTCTVSGYSITSDYNSHWIRQPPGKGLEWIGYIHYSGSRNYNPSLKSRVTISRDTSKNQFSLKLSSVTAADTAVYYCARNYGSIYVNYFDYWGQGTLVTVSS VL: EIVLTQSPATLSLSPGERATLSCSASSSVSYMYWYQQKPGQAPRPLIYRTSNLASGIPARFSGSGSGTDFTLTISSLEPEDFAVYYCQQYHSYPTFGGGTKVEIK | 0.67 nM
SA301a HC-Y59E (antibody, name in Kabat numbering, V domains shown, IgG1 kappa) VH: QVQLQESGPGLVKPSQTLSLTCTVSGYSITSDYNSHWIRQPPGKGLEWIGYIHYSGSTNENPSLKSRVTISRDTSKNQFSLKLSSVTAADTAVYYCARNYGSIYVNYFDYWGQGTLVTVSS VL: EIVLTQSPATLSLSPGERATLSCSASSSVSYMYWYQQKPGQAPRPLIYRTSNLASGIPARFSGSGSGTDFTLTISSLEPEDFAVYYCQQYHSYPTFGGGTKVEIK | 0.18 nM
SA301a HC-Y59D (antibody, name in Kabat numbering, V domains shown, IgG1 kappa) VH: QVQLQESGPGLVKPSQTLSLTCTVSGYSITSDYNSHWIRQPPGKGLEWIGYIHYSGSTNDNPSLKSRVTISRDTSKNQFSLKLSSVTAADTAVYYCARNYGSIYVNYFDYWGQGTLVTVSS VL: EIVLTQSPATLSLSPGERATLSCSASSSVSYMYWYQQKPGQAPRPLIYRTSNLASGIPARFSGSGSGTDFTLTISSLEPEDFAVYYCQQYHSYPTFGGGTKVEIK | 1.25 nM and 0.63 nM
SA301a HC-T57F (antibody, name in Kabat numbering, V domains shown, IgG1 kappa) VH: QVQLQESGPGLVKPSQTLSLTCTVSGYSITSDYNSHWIRQPPGKGLEWIGYIHYSGSFNYNPSLKSRVTISRDTSKNQFSLKLSSVTAADTAVYYCARNYGSIYVNYFDYWGQGTLVTVSS VL: EIVLTQSPATLSLSPGERATLSCSASSSVSYMYWYQQKPGQAPRPLIYRTSNLASGIPARFSGSGSGTDFTLTISSLEPEDFAVYYCQQYHSYPTFGGGTKVEIK | 1.22 nM
SA301a HC-T57Q (antibody, name in Kabat numbering, V domains shown, IgG1 kappa) VH: QVQLQESGPGLVKPSQTLSLTCTVSGYSITSDYNSHWIRQPPGKGLEWIGYIHYSGSQNYNPSLKSRVTISRDTSKNQFSLKLSSVTAADTAVYYCARNYGSIYVNYFDYWGQGTLVTVSS VL: EIVLTQSPATLSLSPGERATLSCSASSSVSYMYWYQQKPGQAPRPLIYRTSNLASGIPARFSGSGSGTDFTLTISSLEPEDFAVYYCQQYHSYPTFGGGTKVEIK | 0.91 nM
SA301a HC-Y59L (antibody, name in Kabat numbering, V domains shown, IgG1 kappa) VH: QVQLQESGPGLVKPSQTLSLTCTVSGYSITSDYNSHWIRQPPGKGLEWIGYIHYSGSTNLNPSLKSRVTISRDTSKNQFSLKLSSVTAADTAVYYCARNYGSIYVNYFDYWGQGTLVTVSS VL: EIVLTQSPATLSLSPGERATLSCSASSSVSYMYWYQQKPGQAPRPLIYRTSNLASGIPARFSGSGSGTDFTLTISSLEPEDFAVYYCQQYHSYPTFGGGTKVEIK | 0.42 nM
